4 molecules from patent publication US20230295275A1 (FLAGSHIP PIONEERING INNOVATIONS VI, published 2023) can be followed below.

Changes are numbered by the printed parent chain.

Sequences and labels used below:
B1: AB-1 full-length IgG1 (antibody, V domains shown)
VH: QMQLVQSGTEVKKPGESLKISCKGSGYGFITVWIGWVRQMPGKGLEWMGIIYPGDSETRYSPSFQGQVTISADKSINTAYLQWSSLKASDTAIYYCAGGSGISTPMDVWGQGTTVTVSS
VL: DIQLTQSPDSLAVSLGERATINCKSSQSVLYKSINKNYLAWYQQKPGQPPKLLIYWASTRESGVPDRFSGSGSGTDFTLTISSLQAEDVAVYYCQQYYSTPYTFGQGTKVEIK
B2: AB-2 full-length IgG1 (antibody, V domains shown)
VH: B1 VH with Y27S, F29T
VL: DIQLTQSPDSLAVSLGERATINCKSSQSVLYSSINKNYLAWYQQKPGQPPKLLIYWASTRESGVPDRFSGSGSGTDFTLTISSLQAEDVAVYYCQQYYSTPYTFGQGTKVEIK
B3: AB-3 full-length IgG1 (antibody, V domains shown)
VH: B1 VH with Y27S
VL: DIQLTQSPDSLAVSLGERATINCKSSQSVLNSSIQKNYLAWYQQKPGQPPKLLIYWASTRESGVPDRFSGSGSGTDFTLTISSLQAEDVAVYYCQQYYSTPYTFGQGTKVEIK
B4: AB-4 full-length IgG1 (antibody, V domains shown)
VH: B1 VH with Y27S, V32Y, S103H
VL: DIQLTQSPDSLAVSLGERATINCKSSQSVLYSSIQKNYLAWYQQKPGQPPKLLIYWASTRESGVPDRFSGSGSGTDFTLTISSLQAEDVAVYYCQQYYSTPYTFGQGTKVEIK

The first experiment has as its target soluble G614 HexaPro spike ectodomain (SARS-CoV-2, UniProt P0DTC2 14-1208).
In the case of B1, the Kd (as a rule, a measure of binding affinity in units of concentration) amounted to 3.39 nM.

As for B2, the Kd amounted to 2.79 nM.

B3 returned a Kd of 1.74 nM.

B4: the affinity, expressed as Kd, was 2.71 nM.

In the next experiment the target is D614 SARS-CoV-2 spike (SARS-CoV-2, UniProt P0DTC2 14-1208).
In turn, B1 registered a Kd of 1.66 nM.

Turning to B2, the Kd came to 1.48 nM.

In turn, B3 displayed a Kd of 0.907 nM.

Molecule B4 showed a Kd of 1.72 nM.
